Test results published in article PMC10392983 (2023).

How the values were obtained:
[1] = target: p110γ-p101 complex (human | Sus scrofa (porcine), UniProt P48736 1-1102; O02696 1-877); assay: BLI
[2] = target: p110γ-p84 complex (human | mouse, UniProt P48736 1-1102; Q3U6Q4 1-756); assay: BLI
Chain of p110γ-p84 complex (P48736 whole entry, chain 1 of 2): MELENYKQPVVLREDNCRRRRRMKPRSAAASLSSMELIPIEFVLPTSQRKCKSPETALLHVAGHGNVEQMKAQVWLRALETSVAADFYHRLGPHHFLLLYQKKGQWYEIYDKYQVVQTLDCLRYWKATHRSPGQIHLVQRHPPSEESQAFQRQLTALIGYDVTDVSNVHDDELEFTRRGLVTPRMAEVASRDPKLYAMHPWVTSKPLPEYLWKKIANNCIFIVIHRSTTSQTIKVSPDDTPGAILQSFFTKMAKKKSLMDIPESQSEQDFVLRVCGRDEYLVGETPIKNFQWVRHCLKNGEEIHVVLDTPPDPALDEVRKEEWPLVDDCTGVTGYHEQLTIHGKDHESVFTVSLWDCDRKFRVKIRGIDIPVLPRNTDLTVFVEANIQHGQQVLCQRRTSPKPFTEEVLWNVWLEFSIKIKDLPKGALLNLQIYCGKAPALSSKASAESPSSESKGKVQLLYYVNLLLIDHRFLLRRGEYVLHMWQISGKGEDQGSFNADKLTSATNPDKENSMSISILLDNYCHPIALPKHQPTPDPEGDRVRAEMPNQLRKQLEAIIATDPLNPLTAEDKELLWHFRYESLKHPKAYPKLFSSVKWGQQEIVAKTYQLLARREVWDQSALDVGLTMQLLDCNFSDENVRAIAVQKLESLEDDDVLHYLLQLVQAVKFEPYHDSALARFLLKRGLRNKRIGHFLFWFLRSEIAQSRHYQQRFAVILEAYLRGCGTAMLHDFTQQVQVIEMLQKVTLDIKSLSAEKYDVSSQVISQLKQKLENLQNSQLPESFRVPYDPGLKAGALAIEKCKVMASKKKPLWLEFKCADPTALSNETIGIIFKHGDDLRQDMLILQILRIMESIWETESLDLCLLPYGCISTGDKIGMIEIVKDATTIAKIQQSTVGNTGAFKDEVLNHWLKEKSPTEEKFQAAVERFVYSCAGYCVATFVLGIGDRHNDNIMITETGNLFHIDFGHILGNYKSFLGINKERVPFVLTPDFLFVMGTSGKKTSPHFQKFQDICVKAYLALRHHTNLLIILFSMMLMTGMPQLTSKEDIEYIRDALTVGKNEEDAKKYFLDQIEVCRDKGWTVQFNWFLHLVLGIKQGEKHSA
Chain of p110γ-p84 complex (Q3U6Q4 whole entry, chain 2 of 2): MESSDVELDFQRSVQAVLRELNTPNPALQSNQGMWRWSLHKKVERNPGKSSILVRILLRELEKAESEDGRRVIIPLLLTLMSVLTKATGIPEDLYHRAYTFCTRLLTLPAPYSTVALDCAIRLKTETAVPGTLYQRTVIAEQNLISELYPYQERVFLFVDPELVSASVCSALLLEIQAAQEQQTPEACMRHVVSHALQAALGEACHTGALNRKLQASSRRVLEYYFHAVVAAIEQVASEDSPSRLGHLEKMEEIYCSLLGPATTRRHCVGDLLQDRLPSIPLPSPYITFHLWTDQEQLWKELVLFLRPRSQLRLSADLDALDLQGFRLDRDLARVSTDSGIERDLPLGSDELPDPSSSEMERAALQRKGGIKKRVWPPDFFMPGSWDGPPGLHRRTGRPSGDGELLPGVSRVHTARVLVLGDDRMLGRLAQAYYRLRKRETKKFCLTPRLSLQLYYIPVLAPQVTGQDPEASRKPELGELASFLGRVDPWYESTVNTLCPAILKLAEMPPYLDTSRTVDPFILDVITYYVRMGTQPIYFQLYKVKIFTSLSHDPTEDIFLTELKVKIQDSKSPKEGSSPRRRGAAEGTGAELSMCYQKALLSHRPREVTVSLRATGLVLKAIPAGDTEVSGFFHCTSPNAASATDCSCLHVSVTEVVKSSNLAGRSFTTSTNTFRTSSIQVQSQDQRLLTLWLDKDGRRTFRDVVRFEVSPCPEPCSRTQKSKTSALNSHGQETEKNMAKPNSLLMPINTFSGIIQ

Chain of p110γ-p101 complex (P48736 whole entry, chain 1 of 2): as the sequence (P48736 whole entry, chain 1 of 2) above
Chain of p110γ-p101 complex (O02696 whole entry, chain 2 of 2): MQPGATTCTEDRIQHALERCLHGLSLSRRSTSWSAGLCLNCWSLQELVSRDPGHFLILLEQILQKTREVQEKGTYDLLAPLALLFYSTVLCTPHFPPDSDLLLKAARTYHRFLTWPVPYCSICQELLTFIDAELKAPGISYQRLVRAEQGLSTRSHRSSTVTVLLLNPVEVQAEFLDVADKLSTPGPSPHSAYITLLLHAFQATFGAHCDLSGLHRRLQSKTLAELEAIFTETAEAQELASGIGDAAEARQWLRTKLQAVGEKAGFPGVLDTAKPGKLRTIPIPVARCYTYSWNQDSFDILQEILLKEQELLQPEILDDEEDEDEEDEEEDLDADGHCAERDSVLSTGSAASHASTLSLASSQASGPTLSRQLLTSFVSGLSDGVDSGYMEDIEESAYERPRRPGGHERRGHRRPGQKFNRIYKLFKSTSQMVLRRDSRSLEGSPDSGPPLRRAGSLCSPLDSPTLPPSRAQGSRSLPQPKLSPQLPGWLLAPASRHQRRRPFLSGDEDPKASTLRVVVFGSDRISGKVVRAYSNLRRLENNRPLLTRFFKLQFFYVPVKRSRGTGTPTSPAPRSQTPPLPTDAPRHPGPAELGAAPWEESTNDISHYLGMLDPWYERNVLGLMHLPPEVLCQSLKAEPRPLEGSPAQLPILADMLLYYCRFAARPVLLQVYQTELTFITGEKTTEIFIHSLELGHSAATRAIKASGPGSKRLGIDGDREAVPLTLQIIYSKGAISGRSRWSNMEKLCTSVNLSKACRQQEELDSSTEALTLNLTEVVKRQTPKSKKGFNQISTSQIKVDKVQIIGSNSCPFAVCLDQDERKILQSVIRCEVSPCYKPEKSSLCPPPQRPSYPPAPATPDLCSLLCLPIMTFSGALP

Kd [1]: 3.1 nM
Kd [2]: 3 nM
B1: Nanobody NB7-PIK3CG (VHH)
VHH: QVQLVESGGGLVQPGGSLRLSCAASGSIFSINAMGWYRQAPGKQRELVAHITSGGSTNYADSVKGRFTISRDNAKNTVYLQMNSLKPEDTAVYYCNEAGDPFLGSTWNGPPAFGSWGQGTQVTVSS
